Results taken from PMC11156922, “PDZ2-conjugated-PLGA nanoparticles are tiny heroes in the battle against SARS-CoV-2” (Scientific Reports, 2024).
No end group written: not given here. *: point of attachment. Biotin = O=C1N[C@H]2[C@H](CS[C@H]2CCCCC(=O)*)N1

Legend:
[1] = molecular target: Envelope protein (SARS-CoV-2) (UniProt P0DTC4); conditions: cited from earlier work
[2] = molecular target: T1, C-terminal portion of the SARS-CoV-2 Envelope protein, N-terminal biotinylated peptide (SARS-CoV-2); experiment: SPR; Biacore X100; biotinylated E peptide immobilised on streptavidin SA chip (target 1000 RU); PDZ2-f-NPs as analyte, 0.0625-30 uM in equivalents of protein; 25 C; HBS-EP (10 mM Hepes pH 7.4, 0.15 M NaCl, 3 mM EDTA, 0.05% P20); steady-state affinity model / Scatchard plot of maximum amplitudes; conditions: both partners purified
T1 construct: also called SARS-CoV-2 E-protein; E-tetradecapeptide
T1 peptide: Biotin-VKNLNSSRVPDLLV

Molecule: ZO1 PDZ2 (from UniProt Q07157)
- Kd [1]: 2100 nM

B1: PDZ2-ZO1 functionalized PLGA-PEG-Bis-sulfone nanoparticles (PDZ2 domain of human ZO-1, His-tagged, conjugated to the nanoparticle surface) (domain or fragment)
chain: KVTLVKSRKNEEYGLRLASHIFVKEISQDSLAARDGNIQEGDVVLKINGTVTENMSLTDAKTLIERSKGKLKMVVQRDE
modifications: His-tag chemically linked to the bis-sulfone (PEG-mono-sulfone) moiety of PLGA-PEG nanoparticles
- Kd [2]: 970 ± 310 nM
